Test results published in patent publication US20060057619A1.

Target: canine Met (canine) (UniProt Q75ZY9)
Assay: cell-based or functional assay

phosphorylation of canine Met in OSA cell lines: 50 ng/mL
Substance: recombinant human HGF (from UniProt P14210 32-728) (ligand)
